The subject of experiment [1] is Spontaneously Hypertensive Rats (SHR). Kind of experiment: Plasma cGMP in spontaneously hypertensive rats. The format is in vivo, rat. The note with it: iv infusion, FIG. 9A. As for the experimental part:
All rat experiments are conducted following the Animal Welfare Act and the protocol is approved by the Mayo Clinic Institutional Animal Care and Use Committee (IACUC). […] Rats are included only if they are deemed healthy by the Institutional Veterinarian Department. Investigators who conduct the in vivo study are not blinded to treatments, but biochemical analysis is performed by a different investigator who is blinded to treatment.
On the day of the experiment, SHR rats are anesthetized with inactin (120 mg/kg, intraperitoneal injection, Sigma, St. Louis, MO). Rats are then kept on a heating pad at 38° C. to maintain a normal body temperature for the entire study. Vascular and bladder cannulation procedures are conducted. Briefly, a polyethylene-50 (PE-50) tube catheter is placed into one jugular vein for peptide infusion and another PE-50 tube is placed into the carotid artery for blood pressure (BP) monitoring (Sonometrics, London, Ontario, Canada) and blood sampling. After instrumentation, a 15-minute equilibrium period follows, and a 30-minute pre-infusion period is performed to collect baseline urine samples.
Four blood samples are collected to determine circulating cGMP levels: at baseline, before the end of drug infusion, at the middle of the washout clearance period, and before the end of the washout clearance period. Any blood loss in the rats is replaced with an equal volume of saline. BP is monitored and recorded every 15 minutes beginning after the initiation of peptide infusion. All collected blood are stored at −80° C. until assayed.
For the biochemical analysis, plasma cGMP levels are measured with a cGMP ELISA kit (Enzo Life Sciences, Farmingdale, NY).

Experiment [2] deals with T1, human GC-A (human), P16066.
T1 chain: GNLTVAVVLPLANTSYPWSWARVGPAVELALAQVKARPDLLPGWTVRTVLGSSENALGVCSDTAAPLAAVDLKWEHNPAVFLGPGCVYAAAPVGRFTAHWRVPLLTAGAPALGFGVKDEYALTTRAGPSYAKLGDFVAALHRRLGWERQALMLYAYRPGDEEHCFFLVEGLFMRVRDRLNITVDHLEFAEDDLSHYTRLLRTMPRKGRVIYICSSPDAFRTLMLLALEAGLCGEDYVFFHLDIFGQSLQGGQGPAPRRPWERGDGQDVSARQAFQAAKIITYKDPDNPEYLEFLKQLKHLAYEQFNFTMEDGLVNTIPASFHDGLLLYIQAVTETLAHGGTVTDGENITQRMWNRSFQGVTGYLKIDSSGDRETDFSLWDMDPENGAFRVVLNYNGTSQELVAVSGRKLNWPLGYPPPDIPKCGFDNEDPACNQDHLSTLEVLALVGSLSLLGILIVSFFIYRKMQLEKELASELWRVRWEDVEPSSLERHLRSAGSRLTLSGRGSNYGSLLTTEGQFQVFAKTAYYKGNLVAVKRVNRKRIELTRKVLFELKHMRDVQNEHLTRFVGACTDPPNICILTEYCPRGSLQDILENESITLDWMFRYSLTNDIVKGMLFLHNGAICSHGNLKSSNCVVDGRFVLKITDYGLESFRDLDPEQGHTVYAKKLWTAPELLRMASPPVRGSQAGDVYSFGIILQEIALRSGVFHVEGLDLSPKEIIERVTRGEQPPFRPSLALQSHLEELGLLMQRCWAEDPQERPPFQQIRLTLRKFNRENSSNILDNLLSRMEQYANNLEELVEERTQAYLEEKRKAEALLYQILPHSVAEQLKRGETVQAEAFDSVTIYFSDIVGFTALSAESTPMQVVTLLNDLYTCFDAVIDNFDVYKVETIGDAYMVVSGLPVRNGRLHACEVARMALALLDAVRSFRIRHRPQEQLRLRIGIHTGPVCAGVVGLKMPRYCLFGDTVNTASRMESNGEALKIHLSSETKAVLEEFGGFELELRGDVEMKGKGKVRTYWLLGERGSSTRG
Kind of experiment: cell-based or functional assay.

For experiment [3], the target named is T2, extracellular domain of GC-A recombinant protein with a C-terminal His-tag (human), P16066.
T2 chain: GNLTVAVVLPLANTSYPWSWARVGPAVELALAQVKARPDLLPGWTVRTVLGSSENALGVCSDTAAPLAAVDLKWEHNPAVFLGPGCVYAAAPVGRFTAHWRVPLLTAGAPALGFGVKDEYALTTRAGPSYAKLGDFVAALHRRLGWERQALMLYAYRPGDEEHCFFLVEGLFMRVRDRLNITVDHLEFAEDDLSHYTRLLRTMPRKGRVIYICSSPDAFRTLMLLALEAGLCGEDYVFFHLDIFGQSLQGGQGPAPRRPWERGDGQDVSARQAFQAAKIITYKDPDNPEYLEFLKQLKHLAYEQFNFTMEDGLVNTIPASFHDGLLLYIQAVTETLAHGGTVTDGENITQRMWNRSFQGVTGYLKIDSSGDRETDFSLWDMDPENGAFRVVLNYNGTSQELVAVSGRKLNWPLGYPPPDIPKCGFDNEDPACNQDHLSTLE
Nature of the experiment: SPR (BI-4500), His-tagged GC-A extracellular domain on Ni-NTA chip, peptide as analyte, 25 C.

Experiment [4] deals with T2, extracellular domain of GC-A …. Nature of the experiment: SPR (BI-4500, 25 C); His-tagged GC-A extracellular domain immobilized on Ni-NTA chip; CRRL 191 injected at 0.125, 0.25, 0.5, 1 and 2 nM.

One may read the Kd as the equilibrium constant for the complex coming apart.

Turning to `CC[C@H](C)[C@@H]1NC(=O)[C@H](CCCNC(=N)N)NC(=O)[C@H](CC(=O)O)NC(=O)[C@H](CCSC)NC(=O)[C@H](CCCNC(=N)N)NC(=O)CNC(=O)CNC(=O)[C@H](Cc2ccccc2)NC(=O)[C@@H](NC(=O)[C@H](CO)NC(=O)[C@H](CO)NC(=O)[C@H](CCCNC(=N)N)NC(=O)[C@H](CCCNC(=N)N)NC(=O)[C@H](CC(C)C)NC(=O)[C@@H](N)CO)CSSC[C@@H](C(=O)N[C@@H](CC(N)=O)C(=O)N[C@@H](CO)C(=O)N[C@@H](Cc2ccccc2)C(=O)N[C@@H](CCCNC(=N)N)C(=O)N[C@@H](Cc2ccc(O)cc2)C(=O)O)NC(=O)CNC(=O)[C@H](CC(C)C)NC(=O)CNC(=O)[C@H](CO)NC(=O)[C@H](CCC(N)=O)NC(=O)[C@H](C)NC(=O)CNC1=O` [ANP, reference compound], in experiment [1], the “plasma cGMP levels” value is given as “increase”.
In experiment [2], RALLTAPRSLRRSSCFGHKIDRINHVSNLGCNSFRYRITAREDKQGWA (modifications not checked) [CRRL 191] registered an EC50 of cGMP production, HEK293 GC-A cells, 10 min stimulation of 0.48 nM; an intracellular cGMP (Mean) at 10^-6 M peptide of 135; an intracellular cGMP (Mean) at 10^-7 M peptide of 141; an intracellular cGMP (Mean) at 10^-8 M peptide of 152. In experiment [2], the intracellular cGMP (Mean) at 10^-9 M peptide stood at 89.9, the intracellular cGMP (Mean) at 10^-10 M peptide was 35.6, the intracellular cGMP (Mean) at 10^-12 M peptide is 2.57 and the intracellular cGMP (Mean) at 10^-14 M peptide was found to be 3.07. The Kd in experiment [3] amounted to 0.128 nM. Further, the Kd in experiment [4] worked out at 0.128 nM.
